# Results: patent publication US20250270341A1 (Alector, published 2025)
# Changes are numbered by the printed parent chain.
# T1: human CD98hc endogenously expressed on HCMEC/D3 cells (human)
# T1 construct: human brain endothelial cell line
# T1 chain: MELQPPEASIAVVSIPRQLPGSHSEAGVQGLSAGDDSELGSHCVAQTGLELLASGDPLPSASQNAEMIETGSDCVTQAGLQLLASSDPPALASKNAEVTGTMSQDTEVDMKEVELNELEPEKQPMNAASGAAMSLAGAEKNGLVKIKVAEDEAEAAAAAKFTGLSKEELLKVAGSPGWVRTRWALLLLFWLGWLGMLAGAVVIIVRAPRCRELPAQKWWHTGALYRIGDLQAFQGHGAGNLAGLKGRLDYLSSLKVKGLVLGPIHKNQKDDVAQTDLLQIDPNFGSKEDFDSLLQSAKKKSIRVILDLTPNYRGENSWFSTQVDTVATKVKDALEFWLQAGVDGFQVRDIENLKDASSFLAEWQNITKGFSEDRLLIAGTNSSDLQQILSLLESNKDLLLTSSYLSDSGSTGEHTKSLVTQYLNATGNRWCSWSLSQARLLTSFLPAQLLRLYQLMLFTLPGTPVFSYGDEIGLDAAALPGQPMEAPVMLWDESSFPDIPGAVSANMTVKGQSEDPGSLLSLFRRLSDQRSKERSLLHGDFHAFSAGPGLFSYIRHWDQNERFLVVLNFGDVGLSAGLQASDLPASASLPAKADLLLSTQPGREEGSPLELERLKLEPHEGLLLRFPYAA
# T2: Full length human CD98hc on CHO cells (human)
# T2 construct: CHO cells stably overexpressing it; also called CHO-human CD98hc; CHO-huCD98hc
# T2 chain: T1 chain
# T3: Full length mouse CD98hc on CHO cells (mouse, UniProt P10852 1-526)
# T3 construct: CHO cells stably overexpressing it; also called CHO-mouse CD98hc; CHO-mCD98hc
# T3 sequence: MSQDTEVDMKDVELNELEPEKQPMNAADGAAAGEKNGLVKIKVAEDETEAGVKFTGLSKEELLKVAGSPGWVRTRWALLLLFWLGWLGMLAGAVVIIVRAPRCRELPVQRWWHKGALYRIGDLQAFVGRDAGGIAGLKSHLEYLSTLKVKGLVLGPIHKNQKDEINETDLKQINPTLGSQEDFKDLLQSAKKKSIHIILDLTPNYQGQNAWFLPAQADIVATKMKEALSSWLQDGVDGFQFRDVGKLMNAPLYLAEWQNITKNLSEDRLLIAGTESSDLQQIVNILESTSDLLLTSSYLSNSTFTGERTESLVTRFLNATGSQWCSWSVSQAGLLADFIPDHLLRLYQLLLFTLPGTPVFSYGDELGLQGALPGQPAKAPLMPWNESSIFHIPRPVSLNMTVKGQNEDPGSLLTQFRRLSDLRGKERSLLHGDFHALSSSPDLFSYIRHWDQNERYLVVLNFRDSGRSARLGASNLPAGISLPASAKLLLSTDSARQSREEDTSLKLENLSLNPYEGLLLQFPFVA
# B1: CD98HC.04.006 (antibody, V domains shown)
# VH: EVNLVESGGDLVQPGGSLRLSCATSGFTFTDYFMSWVRQPPGKALEWLGFIRNKAYGYTTEYSASVKGRFTISRDNSQSIFYLQMNTLRLEDSATYYCARGPFISTAPFAYWGQGTLVTVSA
# VL: DIVMSQSPSSLAVSVGETVTMSCKSSQSLLYSSNQKNYLAWYQQKPGQSPKLLIYWGSTRESGVPDRFTGSGSGTDFTLTISSVKAEDLAVYYCQHYYGYPWTFGGGTKLEIK
# notes: hybridoma IgG
# B2: CD98HC.04.011 (antibody, V domains shown)
# VH: DVQLQESGPDLVKPSQSLSLTCSVTVYSFTSVYSWHWIRQFPGNKLEWMGYIHDSGTTNYNPSLKSRISVTRDTSKNQFFLQLNSVTTEDTATYYCARGRPYGYDGFAYWGQGTLVTVSA
# VL: DIQMTQSSSYLSVSLGDRVTITCKASDHINNWLAWYQQKPGNAPRLLITGAVNLETGVPSRFSGSGSGKDYTLSITSLQTEDVATYYCQQYWSIPRTFGGGTNLEIK
# notes: hybridoma IgG
# B3: CD98HC.04.012 (antibody, V domains shown)
# VH: QVQLQQSGADLVRPGDSVKISCKGSGYTFTDNTLHWVKQSHAKSLEWIGVISPYYGDASYNQKFKGKATMTVDKSSSTAYMELARLTSEDSAIYYCARVGGRLRLGYYFDHWGQGTTLTVSS
# VL: NIMMTQSPSSLAVSAGEKVTMNCKSSQSVLSSSNQKNYLAWYQQKPGQSPKLLIYWASTRESGVPARFTGSGSGTDFSLTITSVQAEDLAVYYCLQYLSSYTFGGGTKLEIK
# notes: hybridoma IgG
# B4: CD98HC.04.010 (antibody, V domains shown)
# VH: QVQLQQSGAELMKPGASVKISCKATGYTFSTYWIEWVKQRPGHGLEWIGEILPGSGTTTYNEKFKGKATFTADTSSNTAYMQLSSLTSEDSAVYYCARRTVYYRYEGIDYWGQGTTLTVSS
# VL: QIVLTQSPAIMSASPGEKVTITCSASSSVSYMFWFQQRPGTSPKLWIYTTSNLASGVPARFSGSGSGTSYSLTISRMEAEDAATYYCQQKNNYPFTFGSGTKLEIK
# notes: hybridoma IgG
# B5: CD98HC.04.018 (antibody, V domains shown)
# VH: QIQLVQSGPELKKPGETVKISCKASGYTFRNYGMNWVKQAPGKGLKWMGWINTYTGEPTYAEDFKGRFAFSLETSASTAYLQINKLKNEDEATYFCARGEAHWYFDVWGAGTTVTVSS
# VL: QIVLTQSPAIMSASLGERVTMTCTASSSVSSSYLYWYQQKPGSSPKLWIYSIFNLASGVPARFSGSGSGTSYSLTISSMEAEDAATYYCHQYHRSPPTFGGGTKLEIK
# notes: hybridoma IgG
# B6: CD98HC.03.002 (antibody, V domains shown)
# VH: DVQLVESGGGLVQPGGSRKLSCAASGFTFSTFGMHWVRQAPEKGLEWVAYISGGSTNIYYADTVKGRFTISRDNPKNTLFLQMTSLRSEDTAMYYCARETTLLATNFDYWGQGTTLTVSS
# VL: DIQMTQTTSSLSASLGDRVTISCRASQDISNYLNWYQQKPDGTVKLLIYYTSRLHSGVPSRFSGSGSGTDYSLTISNLEQEDIATYFCQQGSTLPRTFGGGTKLEIK
# notes: hybridoma IgG
# B7: CD98HC.04.003 (antibody, V domains shown)
# VH: QVQLQQSGAELAKPGASLKMSCKASGYTFTDYYIHWVKQRPGQDLEWIGYINPNSAYTDSNQKFKDKATLTADKSSNTAYMQLSSLTSEDSAVYYCARKGHFYAPSFAYWGQGTLVTVSA
# VL: B6 VL with T69A, E79Q, S92D, R96Y, K107E
# notes: hybridoma IgG
# B8: CD98HC.04.045 (antibody, V domains shown)
# VH: QIQLVQSGPELKKPGETVKISCKASGYSITNFGMNWVKQAPGKGLKWMGWVNTYTGEPTYADDFKGRFAFSLETSASTASLQINNLKNEDTATYFCTRSVITYTMDYWGQGTSVTVSS
# VL: DIQLTQSPSSLSASLGERVSLTCRASQEISGYLSWLQQKPDGTIKRLIYAASTLDSGVPKRFSGSRSGSDYSLTISSLESEDFADYYCLQYASYPRTFGGGTKVEIK
# notes: hybridoma IgG
# B9: CD98HC.04.013 (antibody, V domains shown)
# VH: EVQLVESGGDLGMPGGSLKLSCAASGFALSGYDMSWVRQTPDKRLEWVAYLSSGGGSTYYPYTVKGRFTISRDNAQNTLYLQMSSLKSEDTAIYYCARHSEVRPWFGYWGQGTLVTVSA
# VL: DIVMSQSPSSLAVSVGEKVTLTCKSSQSLLYSGNQKNYLAWYQQNPGQSPKLLIYWASTRESGVPDRFTGSGSGTDFTLTISSVKAEDLAVYYCQQYYTYPPTFGAGTKLGLK
# notes: hybridoma IgG
# B10: CD98HC.04.022 (antibody, V domains shown)
# VH: EVQLQQSGAELVKPGASVKLSCTASGFNIKDTFMHWMKQRPEQGLEWIGRIDPANANTRYDPKFQGKATITTDTSSNTAYLQLSSLTSEDTAVYYCARDVYYDVWGAGTTVTVSS
# VL: DILMTQSPSSMSVSLGDTVTITCHASQGISSNIGWLQQKPGRSFKGLIYHGSNLEDGVPSRFTGSGSGTDYSLTISGLESEDFADYYCVQYAQFPRTFGGGTKLEIQ
# notes: hybridoma IgG
# B11: CD98HC.04.009 (antibody, V domains shown)
# VH: QVQLKESGPGLVAPSQSLSITCTVSGFSLTSYGVHWVRQPPGKGLEWLGVIWAGGSTYYNSALMSRLSISKDNAKSQVLLKMSSLQTDDTAMYYCARDNYGGVYLDVWGAGTTVTVSS
# VL: ENVLTQSPASMSASPGEKVTMTCRASSSVSSSYLHWYQQKSGASPKLWIYSTSNLASGVPARFSGSGSGTSYSLTISSVEAEDAATYYCQQYSGYPLTFGSGTKLEIK
# notes: hybridoma IgG
# B12: CD98HC.03.031 (antibody, V domains shown)
# VH: QVQLQQSGAELVRPGVSVKISCKASGYTFTDYAMHWVKQSHAKSLEWIGVISTYYGDTTYNQKFKDKATMTVDKSSSTAYLELARLTSEDSAIYYCARVWLLSYAMDNWGQGTSVTVSS
# VL: DIVMTQSQRFMSTSVGDGVRITCKASQNVRTAVAWYQQKPGQSPKALINLAPNRHTGVPDRFTARGSGTDFTLTISNVQSEDLADYFCLQHWNYPLTFGAGTKLELK
# notes: hybridoma IgG
# Target: T1, human CD98hc endogenously expressed on …
# Experiment: FACS, hybridoma supernatant
row,MFI ratio over secondary antibody,Binder
1,197,B1
2,192,B2
3,155,B3
4,151,B4
5,335,B5
6,233,B6
7,13.8,B7
8,4,B8
9,124,B9
10,102,B10
11,131,B11
12,198,B12

# Target: T2, Full length human CD98hc on CHO cells
# Experiment: FACS, hybridoma supernatant
row,MFI ratio over secondary antibody,Binder
1,39,B1
2,31,B2
3,28.3,B3
4,26.5,B4
5,50.3,B5
6,28.5,B6
7,3.2,B7
8,2.4,B8
9,21.2,B9
10,16.6,B10
11,18.5,B11
12,38.9,B12

# Target: T3, Full length mouse CD98hc on CHO cells
# Experiment: FACS, hybridoma supernatant
row,MFI ratio over secondary antibody,Binder
1,1.1,B1
2,1.1,B2
3,1.1,B3
4,1.1,B4
5,1.1,B5
6,1,B6
7,1.1,B7
8,1.2,B8
9,1.1,B9
10,1.1,B10
11,1.1,B11
12,1.2,B12

# Target: T3, Full length mouse CD98hc on CHO cells
# Experiment: FACS, hybridoma supernatant
# Remark: another data set of the same source
# Description: The IgG positive hybridoma supernatants (898 in total) were initially screened for their ability to differentially bind CHO cells overexpressing human or mouse CD98hc cells compared to CHO parental cells by FACS. Overexpressing cells were harvested, washed, and labeled with various concentrations and combinations of CellTrace cell proliferation dyes CFSE and Violet (ThermoFisher, Cat #C34554 and Cat #34557, respectively) to create uniquely barcoded cell populations. Barcoded cells (5×10⁴ of each cell population) were aliquoted into 96-well U-bottom plates and incubated with 50 μl of hybridoma cell culture supernatant or 1 μg/ml of commercially available purified mouse anti-human CD98hc monoclonal antibody (Sigma Aldrich, Cat #SAB 4700503) and rat anti-mouse CD98hc antibody (Bio-Rad Laboratories, Hercules, CA, Cat #MCA2684) on ice for 30 minutes. […] Following this secondary antibody incubation, the cells were again washed twice with ice-cold FACS buffer and resuspended in a final volume of 50 μl of FACS buffer containing 0.25 μl/well propidium iodide (BD Biosciences, Cat #556463). Binding intensity on cells was analyzed using the FACS Canto system (BD Biosciences), with sorting gates drawn to exclude dead (i.e., propidium iodide-positive) cells. For each barcoded cell population, the ratio of APC Mean Fluorescence Intensity (MFI) divided by secondary antibody MFI was calculated for each anti-CD98hc hybridoma supernatant tested and reported in Table 5.
row,binding result,Binder
1,no binding,B1
2,no binding,B2
3,no binding,B3
4,no binding,B4
5,no binding,B5
6,no binding,B6
7,no binding,B7
8,no binding,B8
9,no binding,B9
10,no binding,B10
11,no binding,B11
12,no binding,B12
